One molecule from US20100055110A1 (XOMA TECHNOLOGY, published 2010) can be followed below.

The target in this assay is recombinant human IL-1β (human, UniProt P01584 117-269). The assay can be described thus: cell-based or functional assay.

B1: AB1 (antibody, V domains shown)
VH: QVTLKESGPGILKPSQTLSLTCSFSGFSLSTSGMGVGWIRQPSGKGLEWLAHIWWDGDESYNPSLKTQLTISKDTSRNQVFLKITSVDTVDTATYFCARARYDPPWFVDWGQGTLVTVSS
VL: DIQMTQTTSSLSASLGDRVTISCRASQDISNYLSWYQQKPDGTVKLLIYYTSKLHSGVPSRFSGSGSGTDYSLTISNLEQEDIATYFCLQGKMLPWTFGGGTKLEIK
Turning to B1, the “IC50 (read off the curve); % inhibition of IL-6 release from human fibroblasts stimulated with IL-1 beta at 100 pg/ml” value was ~200 pM.
